{"source": "patent US20230365709A1", "about": "(published 2023)", "binders": {"B1": {"name": "2Fab-1scFv-AFc-1 (bispecific antibody, human IgG1, kappa)", "heavy": "not shown", "light": "DIVMTQSPATLSLSPGERATLSCRSSKSLQNVNGNTYLYWFQQKPGQSPQLLIYRMSNLNSGVPDRFSGSGSGTEFTLTISSLEPEDFAVYYCMQHLEYPITFGAGTKLEIKRTVAAPSVFIFPPSDEQLKSGTASVVCLLNNFYPREAKVQWKVDNALQSGNSQESVTEQDSKDSTYSLSSTLTLSKADYEKHKVYACEVTHQGLSSPVTKSFNRGEC", "chain": "not shown", "notes": "CD19, wt Fc, NKG2D(KYK-2.0)"}, "B2": {"name": "2Fab-1scFv-AFc-2 (bispecific antibody, human IgG1, kappa)", "heavy": "not shown", "light": "B1 light", "chain": "not shown", "notes": "CD19, wt Fc, NKG2D(ADI-27743)"}, "B3": {"name": "2Fab-1scFv-AFc-4 (bispecific antibody, human IgG1, kappa)", "heavy": "not shown", "light": "B1 light", "chain": "not shown", "notes": "CD19, wt Fc, NKp46(NKp46-3)"}, "B4": {"name": "IG-scDb-1 (other)", "heavy": "EVQLVESGGGLVKPGGSLKLSCAASGYTFTSYVMHWVRQAPGKGLEWIGYINPYNDGTKYNEKFQGRVTISSDKSISTAYMELSSLRSEDTAMYYCARGTYYYGTRVFDYWGQGTLVTVSSASTKGPSVFPLAPSSKSTSGGTAALGCLVKDYFPEPVTVSWNSGALTSGVHTFPAVLQSSGLYSLSSVVTVPSSSLGTQTYICNVNHKPSNTKVDKKVEPKSCDKTHTCPPCPAPEFEGGPSVFLFPPKPKDTLMISRTPEVTCVVVAVSHEDPEVKFNWYVDGVEVHNAKTKPREEQYGSTYRVVSVLTVLHQDWLNGKEYKCKVSNKALPAPIEKTISKAKGQPREPQVYTLPPSREEMTKNQVSLTCLVKGFYPSDIAVEWESNGQPENNYKTTPPVLDSDGSFFLYSKLTVDKSRWQQGNVFSCSVMHEALHNHYTQKSLSLSPGGGGGSGGGGSSYELTQPLSVSVALGQTARITCGGHNIGSKNVHWYQQKPGQAPVLVIYQDNKRPSGIPERFSGSNSGNTATLTISRAQAGDEADYYCQVWDNYNVLFGCGTKLTVLGGSGGSQVQLVESGGGLVKPGGSLRLSCAASGFTFSSYGMHWVRQAPGKGLEWVAFIRYDGSNKYYADSVKGRFTISRDNSKNTLYLQMNSLRAEDTAVYYCAKDRGLGDGTYFDYWGQGTTVTVSSGGSGGSGGSGGSGGSGGSQSALTQPASVSGSPGQSITISCSGSSSNIGNNAVNWYQQLPGKAPKLLIYYDDLLPSGVSDRFSGSKSGTSAFLAISGLQSEDEADYYCAAWDDSLNGPVFGGGTKLTVLGGSGGSQVQLVQSGAEVKKPGASVKVSCKASGYTFTSYYMHWVRQAPGQCLEWMGAIEPTYGSTSYAQKFQGRVTMTRDTSTSTVYMELSSLRSEDTAVYYCARGSAYYYDFADYWGQGTLVTVSS", "light": "B1 light", "notes": "trispecific construct: target CD19, effector domains CD16A(P2C47var50) and NKG2D(KYK-2.0)"}, "B5": {"name": "2Fab-1scFv-AFc-3 (bispecific antibody, human IgG1, kappa)", "heavy": "not shown", "light": "B1 light", "chain": "not shown", "notes": "CD19, wt Fc, NKp46(NKp46-1)"}, "B6": {"name": "1Fab-AFc-1Fab-1 (bispecific antibody, human IgG1, kappa)", "chain 1": "not shown", "chain 2": "EVQLVESGGGLVKPGGSLKLSCAASGYTFTSYVMHWVRQAPGKGLEWIGYINPYNDGTKYNEKFQGRVTISSDKSISTAYMELSSLRSEDTAMYYCARGTYYYGTRVFDYWGQGTLVTVSSASTKGPSVFPLAPSSKSTSGGTAALGCLVKDYFPEPVTVSWNSGALTSGVHTFPAVLQSSGLYSLSSVVTVPSSSLGTQTYICNVNHKPSNTKVDKKVEPKSCDKTHTCPPCPAPELLGGPSVFLFPPKPKDTLMISRTPEVTCVVVDVSHEDPEVKFNWYVDGVEVHNAKTKPREEQYNSTYRVVSVLTVLHQDWLNGKEYKCKVSNKALPAPIEKTISKAKGQPREPQVYTLPPSREEMTKNQVSLSCAVKGFYPSDIAVEWESNGQPENNYKTTPPVLDSDGSFFLVSKLTVDKSRWQQGNVFSCSVMHEALHNHYTQKSLSLSPGSTGSQVQLQQSGPELVKPGASVKMSCKASGYTFTDYVINWGKQRSGQGLEWIGEIYPGSGTNYYNEKFKAKATLTADKSSNIAYMQLSSLTSEDSAVYFCARRGRYGLYAMDYWGQGTSVTVSSRTVAAPSVFIFPPSDEQLKSGTASVVCLLNNFYPREAKVQWKVDNALQSGNSQESVTEQDSKDSTYSLSSTLTLSKADYEKHKVYACEVTHQGLSSPVTKSFNRGEC", "chain 3": "DIQMTQTTSSLSASLGDRVTISCRASQDISNYLNWYQQKPDGTVKLLIYYTSRLHSGVPSRFSGSGSGTDYSLTINNLEQEDIATYFCQQGNTRPWTFGGGTKLEIKASTKGPSVFPLAPSSKSTSGGTAALGCLVKDYFPEPVTVSWNSGALTSGVHTFPAVLQSSGLYSLSSVVTVPSSSLGTQTYICNVNHKPSNTKVDKKVEPKSCDKTH", "notes": "CD19, wt Fc, NKp46(NKp46-1); also called ComparatorA_1"}, "B7": {"name": "1Fab-AFc-1Fab-5 (bispecific antibody, human IgG1, kappa)", "chain 1": "DIVMTQSPATLSLSPGERATLSCRSSKSLQNVNGNTYLYWFQQKPGQSPQLLIYRMSNLNSGVPDRFSGSGSGTEFTLTISSLEPEDFAVYYCMQHLEYPITFGAGTKLEIKRTVAAPSVFIFPPSDEQLKSGTASVVCLLNNFYPREAKVQWKVDNALQSGNSQESVTEQDSKDSTYSLSSTLTLSKADYEKHKVYACEVTHQGLSSPVTKSFNRGECDKTHTCPPCPAPELLGGPDVFLFPPKPKDTLMISRTPEVTCVVVDVSHEDPEVKFNWYVDGVEVHNAKTKPREEQYNSTYRVVSVLTVLHQDWLNGKEYKCKVSNKALPAPEEKTISKAKGQPREPQVYTLPPSREEMTKNQVSLWCLVKGFYPSDIAVEWESNGQPENNYKTTPPVLDSDGSFFLYSKLTVDKSRWQQGNVFSCSVMHEALHNHYTQKSLSLSPGK", "chain 2": "B6 chain 2 with S243D, I336E", "chain 3": "B6 chain 3", "notes": "CD19, Fc-enhanced Fc, NKp46(NKp46-1); also called ComparatorA_5"}, "B8": {"name": "1Fab-AFc-1Fab-2 (bispecific antibody, human IgG1, kappa)", "chain 1": "not shown", "chain 2": "EVQLVESGGGLVKPGGSLKLSCAASGYTFTSYVMHWVRQAPGKGLEWIGYINPYNDGTKYNEKFQGRVTISSDKSISTAYMELSSLRSEDTAMYYCARGTYYYGTRVFDYWGQGTLVTVSSASTKGPSVFPLAPSSKSTSGGTAALGCLVKDYFPEPVTVSWNSGALTSGVHTFPAVLQSSGLYSLSSVVTVPSSSLGTQTYICNVNHKPSNTKVDKKVEPKSCDKTHTCPPCPAPELLGGPSVFLFPPKPKDTLMISRTPEVTCVVVDVSHEDPEVKFNWYVDGVEVHNAKTKPREEQYNSTYRVVSVLTVLHQDWLNGKEYKCKVSNKALPAPIEKTISKAKGQPREPQVYTLPPSREEMTKNQVSLSCAVKGFYPSDIAVEWESNGQPENNYKTTPPVLDSDGSFFLVSKLTVDKSRWQQGNVFSCSVMHEALHNHYTQKSLSLSPGSTGSEVQLQQSGPELVKPGASVKISCKTSGYTFTEYTMHWVKQSHGKSLEWIGGISPNIGGTSYNQKFKGKATLTVDKSSSTAYMELRSLTSEDSAVYYCARRGGSFDYWGQGTTLTVSSRTVAAPSVFIFPPSDEQLKSGTASVVCLLNNFYPREAKVQWKVDNALQSGNSQESVTEQDSKDSTYSLSSTLTLSKADYEKHKVYACEVTHQGLSSPVTKSFNRGEC", "chain 3": "DIVMTQSPATLSVTPGDRVSLSCRASQSISDYLHWYQQKSHESPRLLIKYASQSISGIPSRFSGSGSGSDFTLSINSVEPEDVGVYYCQNGHSFPLTFGAGTKLELKASTKGPSVFPLAPSSKSTSGGTAALGCLVKDYFPEPVTVSWNSGALTSGVHTFPAVLQSSGLYSLSSVVTVPSSSLGTQTYICNVNHKPSNTKVDKKVEPKSCDKTH", "notes": "CD19, wt Fc, NKp46(NKp46-3); also called ComparatorA_2"}}, "key": {"[1]": {"biological_target": "T1, recombinant human CD64 expressed on the surface of CHO cells (human, UniProt P12314 16-374)", "T1 construct": "whole, on cells; also called huCD64", "T1 sequence (P12314 16-374)": "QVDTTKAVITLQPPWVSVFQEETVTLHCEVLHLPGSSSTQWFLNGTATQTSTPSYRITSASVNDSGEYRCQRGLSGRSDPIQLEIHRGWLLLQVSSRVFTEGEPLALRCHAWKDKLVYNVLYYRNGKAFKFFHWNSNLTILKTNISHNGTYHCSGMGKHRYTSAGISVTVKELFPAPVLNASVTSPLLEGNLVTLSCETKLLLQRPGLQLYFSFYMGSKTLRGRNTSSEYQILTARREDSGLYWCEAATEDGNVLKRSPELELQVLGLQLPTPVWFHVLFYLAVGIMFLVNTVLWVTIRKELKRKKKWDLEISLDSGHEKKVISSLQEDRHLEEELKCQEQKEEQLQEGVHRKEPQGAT", "assay": "flow cytometry, receptor-expressing CHO cells", "description": "(§1) The CHO cells were incubated with serial dilutions of the indicated trispecific constructs and control constructs at 37° C., and cell surface bound antibodies were detected by FITC-conjugated goat anti-human IgG Fc and flow cytometric analysis. Measured median fluorescence intensity values were used to calculate apparent affinities (KD) by non-linear regression."}, "[2]": {"biological_target": "T2, recombinant human CD32A expressed on the surface of CHO cells (human, UniProt P12318 34-317)", "T2 construct": "whole, on cells; also called huCD32A", "T2 sequence (looked up)": "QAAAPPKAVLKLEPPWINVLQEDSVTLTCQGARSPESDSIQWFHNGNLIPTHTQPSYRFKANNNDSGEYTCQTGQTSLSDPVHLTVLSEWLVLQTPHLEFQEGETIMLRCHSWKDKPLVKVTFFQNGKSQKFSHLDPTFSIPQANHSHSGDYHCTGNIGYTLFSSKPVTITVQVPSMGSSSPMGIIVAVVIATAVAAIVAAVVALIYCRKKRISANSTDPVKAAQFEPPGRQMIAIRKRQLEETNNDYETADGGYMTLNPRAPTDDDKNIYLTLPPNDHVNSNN", "assay": "flow cytometry, CHO-huCD32A cells, apparent KD; SD n.a.", "description": "as §1"}, "[3]": {"biological_target": "T2, recombinant human CD32A expressed on …", "assay": "flow cytometry, CHO-huCD32A cells, apparent KD; SD 719.6", "description": "as §1"}, "[4]": {"biological_target": "T1, recombinant human CD64 expressed on the …", "assay": "flow cytometry, CHO-huCD64 cells, apparent KD; SD 13.7", "description": "as §1"}, "[5]": {"biological_target": "T2, recombinant human CD32A expressed on …", "assay": "flow cytometry, CHO-huCD32A cells, apparent KD; SD 118.9", "description": "as §1"}, "[6]": {"biological_target": "T1, recombinant human CD64 expressed on the …", "assay": "flow cytometry, CHO-huCD64 cells, apparent KD; SD 8.7", "description": "as §1"}, "[7]": {"biological_target": "T2, recombinant human CD32A expressed on …", "assay": "flow cytometry, CHO-huCD32A cells, apparent KD; SD 236.8", "description": "as §1"}, "[8]": {"biological_target": "T1, recombinant human CD64 expressed on the …", "assay": "flow cytometry, CHO-huCD64 cells, apparent KD; SD 3.4", "description": "as §1"}, "[9]": {"biological_target": "T1, recombinant human CD64 expressed on the …", "assay": "flow cytometry, CHO-huCD64 cells, apparent KD; SD 7.0", "description": "as §1"}, "[10]": {"biological_target": "T3, recombinant human NKp46 expressed on the surface of CHO cells (human, UniProt O76036 22-304)", "T3 construct": "whole, on cells; also called huNKp46; CD355", "T3 sequence (O76036 22-304)": "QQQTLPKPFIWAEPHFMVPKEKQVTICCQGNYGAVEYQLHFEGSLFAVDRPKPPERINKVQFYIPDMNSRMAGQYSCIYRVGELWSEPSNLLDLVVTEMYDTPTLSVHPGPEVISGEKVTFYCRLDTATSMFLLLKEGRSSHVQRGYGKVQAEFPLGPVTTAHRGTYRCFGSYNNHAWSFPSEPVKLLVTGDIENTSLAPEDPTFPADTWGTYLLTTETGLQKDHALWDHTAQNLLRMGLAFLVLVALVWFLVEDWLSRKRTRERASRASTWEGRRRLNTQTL", "assay": "flow cytometry, CHO-huNKp46 cells, apparent KD; SD 6.2", "description": "as §1"}}, "note": "Numbering of substitutions follows the chain as printed.", "data": [{"binder": "B1", "values": [{"measurement": "binding result", "setting": "[1]", "value": "binds"}]}, {"binder": "B2", "values": [{"measurement": "binding result", "setting": "[1]", "value": "binds"}]}, {"binder": "B3", "values": [{"measurement": "binding result", "setting": "[1]", "value": "binds"}]}, {"binder": "B4", "values": [{"measurement": "Kd", "setting": "[2]", "value": 4090, "unit": "nM"}]}, {"binder": "B5", "values": [{"measurement": "Kd", "setting": "[3]", "value": 682, "unit": "nM"}, {"measurement": "Kd", "setting": "[4]", "value": 38.1, "unit": "nM"}]}, {"binder": "B6", "values": [{"measurement": "Kd", "setting": "[5]", "value": 286, "unit": "nM"}, {"measurement": "Kd", "setting": "[6]", "value": 22.7, "unit": "nM"}]}, {"binder": "B7", "values": [{"measurement": "Kd", "setting": "[7]", "value": 1050, "unit": "nM"}, {"measurement": "Kd", "setting": "[8]", "value": 15.9, "unit": "nM"}]}, {"binder": "B8", "values": [{"measurement": "Kd", "setting": "[2]", "value": 1150, "unit": "nM"}, {"measurement": "Kd", "setting": "[9]", "value": 23.9, "unit": "nM"}, {"measurement": "Kd", "setting": "[10]", "value": 48, "unit": "nM"}]}]}
